# T1: lysozyme (Homo sapiens, UniProt P61626)
# T1 sequence (P61626 19-148): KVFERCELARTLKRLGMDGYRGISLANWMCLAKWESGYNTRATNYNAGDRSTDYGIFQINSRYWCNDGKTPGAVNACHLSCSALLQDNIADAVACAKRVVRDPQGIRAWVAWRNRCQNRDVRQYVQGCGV
# B1: human lysozyme: human lysozyme (NP_000230); breast milk-derived in Example 8, recombinant (Ventria) in Examples 10 and 16 (protein, listed as Homo sapiens)
# chain: T1 sequence (P61626 19-148)
# B2: GST-Tp47: control protein, GST fusion of T. pallidum Tp47 antigen (protein)
# chain: CGSSHHETHYGYATLSYADYWAGELGQSRDVLLAGNAEADRAGDLDAGMFDAVSRATHGHGAFRQQFQYAVEVLGEKVLSKQETEDSRGRKKWEYETDPSVTKMVRASASFQDLGEDGEIKFEAVEGAVALADRASSFMVDSEEYKITNVKVHGMKFVPVAVPHELKGIAKEKFHFVEDSRVTENTNGLKTMLTEDSFSARKVSSMESPHDLVVDTVGTGYHSRFGSDAEASVMLKRADGSELSHREFIDYVMNFNTVRYDYYGDDASYTNLMASYGTKHSADSWWKTGRVPRISCGINYGFDRFKGSGPGYYRLTLIANGYRDVVADVRFLPKYEGNIDIGLKGKVLTIGGADAETLMDAAVDVFADGQPKLVSDQAVSLGQNVLSADFTPGTEYTVEVRFKEFGSVRAKVVAQ
# modifications: left off: a dimerising Fc or GST
# notes: control protein, GST fusion of T. pallidum Tp47 antigen
# How the values were obtained:
# [1] = test system: Micrococcus lysodeikticus; settings: pH 6.24, 25° C., Micrococcus lysodeikticus suspension; cited from earlier work
# [2] = molecular target: T2, chicken lysozyme (Gallus gallus, UniProt P00698); assay: Far Western blot lysozyme-protein interaction assay; type: binding; set-up: Purified chicken egg white lysozyme; purchased Sigma-Aldrich (Madrid, Spain); host or cells: chicken egg white; settings: 1, 5 and 10 μg immobilized lysozyme per lane; washes with 0.05% Tween 20
# T2 sequence (P00698 19-147): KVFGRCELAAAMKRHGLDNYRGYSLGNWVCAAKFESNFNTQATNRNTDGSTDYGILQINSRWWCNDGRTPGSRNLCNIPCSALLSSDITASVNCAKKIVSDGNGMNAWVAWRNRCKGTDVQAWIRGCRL
# Description: (§1) In order to test this hypothesis, a Far-Western blot lysozyme-protein interaction assay was performed. The assay is summarized in FIG. 5 and comprises generally the following three steps: (1) immobilization of purified lysozyme onto a membrane; (2) probing of the membrane with a ligand likely to bind directly to the lysozyme; and (3) immunodetection of the bound lysozyme-ligand. A detailed experimental procedure is presented below.
# (§2) Purified chicken egg white lysozyme and human breast milk lysozyme were purchased from Sigma-Aldrich (Madrid, Spain). Two series of aliquot fractions containing 1 μg, 5 μg, and 10 μg of purified lysozyme and a protein molecular weight marker (SeeBlue Plus II™, Invitrogen SA, Barcelona, Spain) were separated electrophoretically through a 4-12% SDS-PAGE gel using the conditions recommended by the supplier (Invitrogen). […] The presence of lysozyme immobilized onto the PVDF membrane was assessed by staining for 1 minute with Ponceau S stain (Sigma-Aldrich, Madrid, Spain), and then destained by vigorous washing for 5 minutes with desionized water. The membrane was divided in two, each portion containing a protein ladder and three quantities of chicken or human lysozyme (1 μg, 5 μg and 10 μg per lane). […]
# [3] = molecular target: T1, lysozyme; assay: Lysozyme inhibition assay (EnzCheck, fluorescein-labeled Micrococcus lysodeikticus); type: biochemical
# Description: (§3) To test this hypothesis, the antibacterial activity of both human and chicken lysozyme, in the presence or absence of GST-Tp17, was assayed using an EnzCheck® lysozyme assay kit (Molecular Probes, Eugene, Oreg.). The assay comprises the use of Fluorescein-labeled Micrococcus lysodeikticus bacterial cells as a fluorescent substrate of lysozyme. In this Gram positive bacterium, the peptidoglycan layer is directly accessible to lysozyme, and has been Fluorescein-labeled such that fluorescence is naturally quenched. Upon lysozyme hydrolysis, quenching is relieved and fluorescein is released in a quantity that is proportional to lysozyme activity. The following experimental protocol was used.
# (§4) A typical 100 μl reaction consisted of 25 μl of lysozyme solution (10 units for chicken lysozyme or 50 units for human lysozyme, dissolved in deionized water), 25 μl of the test protein solution and 50 μl of a suspension of fluorescein-labeled Micrococcus lysodeikticus (50 μg/ml). The reaction was incubated for 45 minutes at 37° C. and the fluorescence was measured (λexc.=485 nm; λemi.=520 nm) using a fluorescence multi-well plate reader model FLx800 (Bio TEK instruments, Winoosky, Vt.) equipped with KC junior data acquisition software (Bio TEK Instruments, Winoosky, Vt.). Each experimental point was expressed as the mean and standard deviation corresponding to the reading of three independent wells. Wells containing 50 μl of deoinized water and 50 μl of Fluorescein-labeled Micrococcus lysodeikticus suspension were used as a blank. Two fold serial dilutions of test protein were used to vary the concentration of the test protein from 83.5 to 1.3 μg/well.
# [4] = molecular target: T2, chicken lysozyme; assay: as above; type: biochemical
# Description: as §3, §4
# [5] = molecular target: T1, lysozyme; assay: Far Western blot lysozyme-protein interaction assay; type: binding; settings: 1, 5 and 10 μg immobilized lysozyme per lane; washes with 0.05% Tween 20
# Description: as §1, §2
# [6] = molecular target: T1, lysozyme; assay: Lysozyme binding assay on spotted β-APP fragments with POD-labeled human lysozyme; settings: 10 μg protein spotted; POD-huLYS diluted 1/1000
# Description: To test whether the β-APP protein binds huLYS, we performed lysozyme binding assays using purified, recombinant forms of β-APP. Both sAPPα (product number: S9564) and sAPPα (302-612) (product number: S8065) were purchased from Sigma-Aldrich (Tres cantos, Madrid, Spain). 10 μg of each protein was spotted onto a Nytran membrane (Scleicher & Schuiell, Dassel, Germany). Non-specific adsorption sites were blocked by incubation for one hour in TBST-milk. After three washes with TBST, the membrane was incubated for one hour with horse radish peroxidase (POD)-labeled human lysozyme diluted 1/1000 in TBST-milk. Next, the membrane was washed three times, for 5 minutes each wash, with TBST. Staining was performed by adding 5 ml of POD chromogenic substrate (TMB, product number: T0565, Sigma). […] Moreover, the β-APP/huLYS protein complex likely serves as a diagnostic marker of Alzheimer's disease.
# [7] = test system: GST-Tp17 or Tp17-HIS; assay: Antibacterial activity of lysozymes with or without Tp17 (EnzCheck); type: biochemical, Treponema pallidum; settings: 1 unit human lysozyme or 230 units rLysozyme; 10 μg GST-Tp17 or Tp17-HIS
# Sequence of GST-Tp17 or Tp17-HIS (P29722 23-156 limits assumed): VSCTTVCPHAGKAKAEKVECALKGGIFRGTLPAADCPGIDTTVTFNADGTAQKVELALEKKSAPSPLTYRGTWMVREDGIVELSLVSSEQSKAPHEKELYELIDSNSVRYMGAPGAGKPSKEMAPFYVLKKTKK
# Text: In that context, we compared the antibacterial activity of human lysozyme (Ventria Bioscience, Sacramento, Calif., USA) and rLysozyme™ using the EnzCheck Lysozyme assay (E-22013; Molecular Probes, Eugene, Oreg.). We first determined that under the manufacturer's prescribed assay conditions, 1 unit of human lysozyme produced the same intensity of fluorescence as 230 units of rLysozyme™. Next, we measured the fluorescence intensity of either 1 unit of human lysozyme or 230 units of rLysozyme™, in the presence or absence of 10 μg of either GST-Tp17 or Tp17-HIS. […] As a consequence, rLysozyme™ represents a novel and promising antimicrobial drug that could eventually substitute for chicken lysozyme in various therapeutic preparations intended for human and animal use. Additionally, it can be used as an antiseptic and/or as a food preservative.
# [8] = test system: anti-T. pallidum antibodies in human sera; assay: Syphilis ELISA (Bioelisa, second and third generation format) with added lysozyme
# Text: Syphilis screening is routinely performed using enzyme-linked immunosorbent assays (ELISA) kits. These kits detect the binding of anti-syphilis antibodies to T. pallidum antigens immobilized in the wells of a microtiter plate. Detection of the binding of anti-syphilis antibodies to the plate is normally carried out by means of either an enzyme-labeled antiserum directed against human Fc antibody chains (second generation kit) or an enzyme-labeled T. pallidum antigen (third generation kit).
# All the reagents used in this study are provided by the commercial Bioelisa Syphilis 3.0 detection kit (Biokit S.A., Lliça d'Amunt, Spain). The protocol used is that recommended in the package insert of the kit. Briefly, serum or plasma samples are added to the wells of a microtiter plate. If antibodies specific for T. pallidum are present in the sample, they form stable complexes with the antigens on the well. After washing to remove the unbound material, a rabbit conjugate anti-human IgG and anti-human IgM labelled with horseradish peroxidase is added and, if the antigen/antibody complex is present, the conjugate binds to the complex. After a second wash, an enzyme substrate solution containing a chromogen is added. This solution develops a blue color if the sample is positive. The blue color changes to yellow after blocking the reaction with sulphuric acid. […]
# [9] = test protein 83.5 to 1.3 μg/well
molecule,measurement,setting,value
recombinant human transgenic rice lysozyme: purified recombinant human lysozyme from transgenic rice (159-53LZ-90P; Ventria Bioscience),specific activity,[1],"187,000 units/mg protein"
GST-Tp17: recombinant fusion of glutathione S-transferase and Treponema pallidum 17 kDa antigen Tp17 (SEQ ID NO:29),binding to chicken lysozyme,[2],detected binding
same,inhibition of acetyl muramidase activity of human lysozyme,"[3]; as little as 1.3 μg/well, 50 units human lysozyme",> 85%
same,inhibition of acetyl muramidase activity of chicken lysozyme,"[4]; as little as 1.3 μg/well, 10 units chicken lysozyme",> 85%
same,binding to human lysozyme,[5],detected binding
sAPPα: longer recombinant fragment of β-APP derived from the APP695 isoform (Sigma S9564),binding of POD-labeled human lysozyme (huLYS),[6],bound
B1,susceptibility of antibacterial activity to inhibition by GST-Tp17 or Tp17-HIS,[7],strongly inhibited
same,increase in signal intensity,"[8]; second generation format, lysozyme added to the plate at 2.86 μg/ml, syphilis-positive human sera",about 20%
same,increase in signal intensity,"[8]; third generation format, lysozyme in sample dilution buffer (10.8 μg/ml) and conjugate dilution buffer (1.08 μg/ml), 3 out of 4 sera",about 200%
B2,binding to chicken lysozyme,[2],No signal was detected
same,inhibitory effect on human lysozyme acetyl muramidase activity (in words),[3]; [9],did not exert any inhibitory effect
same,inhibitory effect on chicken lysozyme acetyl muramidase activity (in words),[4]; [9],did not exert any inhibitory effect
same,binding to human lysozyme,[5],No signal was detected

# — patent US7700727B2, “Compositions and kits for detecting pathogen infection” (Biokit, S.A., priority 2003, dated 2010)
